Target: the molecule itself
Experiment: SDS-PAGE and immunoblotting of the purified protein

B1: HPV11 His6-E6 protein (natural protein)
chain: MESKDASTSATSIDQLCKTFNLSLHTLQIQCVFCRNALTTAEIYAYAYKNLKVVWRDNFPFAACACCLELQGKINQYRHFNYAAYAPTVEEETNEDILKVLIRCYLCHKPLCEIEKLKHILGKARFIKLNNQWKGRCLHCWTTCMEDLLP
B1: binds.

B2: HPV16 His6-E6 protein (natural protein)
chain: MHQKRTAMFQDPQERPRKLPQLCTELQTTIHDIILECVYCKQQLLRREVYDFAFRDLCIVYRDGNPYAVCDKCLKFYSKISEYRHYCYSLYGTTLEQQYNKPLCDLLIRCINCQKPLCPEEKQRHLDKKQRFHNIRGRWTGRCMSCCRSSRTRRETQL
notes: also called HR-HPV16 His6-E6; HPV16 E6
B2: binds.

— PMC4963926 (Journal of Translational Medicine, 2016)
